# Data as given in US20230051701A1 (Bristol-Myers Squibb, published 2023).
# Values joined by “and” are separate entries in the source; they are usually repeats but may differ in a detail not shown here. Equal entries are not always repeated.
# T1: rhCD73 bound to his-tag magnet beads (human, UniProt P21589 27-549, limits assumed)
# T1 sequence: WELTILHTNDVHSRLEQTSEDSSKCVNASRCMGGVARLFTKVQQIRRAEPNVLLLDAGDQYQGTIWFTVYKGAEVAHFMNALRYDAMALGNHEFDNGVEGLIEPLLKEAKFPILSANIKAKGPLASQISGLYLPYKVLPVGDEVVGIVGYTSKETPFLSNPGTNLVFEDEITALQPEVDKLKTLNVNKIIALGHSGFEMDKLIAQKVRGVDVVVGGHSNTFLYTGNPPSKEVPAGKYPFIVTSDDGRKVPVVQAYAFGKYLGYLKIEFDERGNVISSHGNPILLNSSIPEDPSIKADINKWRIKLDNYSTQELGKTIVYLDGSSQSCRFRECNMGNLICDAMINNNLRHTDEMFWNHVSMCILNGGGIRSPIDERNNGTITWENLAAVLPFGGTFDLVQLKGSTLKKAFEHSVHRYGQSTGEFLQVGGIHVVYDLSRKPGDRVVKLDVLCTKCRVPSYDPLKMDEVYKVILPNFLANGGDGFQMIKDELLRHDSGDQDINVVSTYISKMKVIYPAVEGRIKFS
# T2: human CD73 on cells (Calu6, NCI-H292, SK-MEL-24, human tumor cell lines, human B and T cells) (human, UniProt P21589 27-549)
# T2 sequence: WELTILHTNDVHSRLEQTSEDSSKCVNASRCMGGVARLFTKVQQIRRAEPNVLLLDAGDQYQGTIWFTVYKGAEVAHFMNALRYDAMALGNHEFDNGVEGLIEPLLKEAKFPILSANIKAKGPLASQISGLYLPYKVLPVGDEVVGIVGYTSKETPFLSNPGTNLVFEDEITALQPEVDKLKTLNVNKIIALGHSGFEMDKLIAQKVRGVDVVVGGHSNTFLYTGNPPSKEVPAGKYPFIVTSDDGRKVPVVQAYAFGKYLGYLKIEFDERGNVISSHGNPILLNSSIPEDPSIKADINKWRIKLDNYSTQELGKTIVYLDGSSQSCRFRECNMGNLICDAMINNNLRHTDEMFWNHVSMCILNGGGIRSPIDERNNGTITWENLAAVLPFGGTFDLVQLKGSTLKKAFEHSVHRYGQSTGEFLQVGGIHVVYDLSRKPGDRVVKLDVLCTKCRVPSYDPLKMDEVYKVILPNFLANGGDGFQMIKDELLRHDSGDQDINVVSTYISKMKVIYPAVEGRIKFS
# T3: N-terminal domain of hCD73 (residues 26-336 of human CD73), His-tagged (human, UniProt P21589 26-336)
# T3 construct: also called N-hCD73; N-hCD73-his
# T3 sequence: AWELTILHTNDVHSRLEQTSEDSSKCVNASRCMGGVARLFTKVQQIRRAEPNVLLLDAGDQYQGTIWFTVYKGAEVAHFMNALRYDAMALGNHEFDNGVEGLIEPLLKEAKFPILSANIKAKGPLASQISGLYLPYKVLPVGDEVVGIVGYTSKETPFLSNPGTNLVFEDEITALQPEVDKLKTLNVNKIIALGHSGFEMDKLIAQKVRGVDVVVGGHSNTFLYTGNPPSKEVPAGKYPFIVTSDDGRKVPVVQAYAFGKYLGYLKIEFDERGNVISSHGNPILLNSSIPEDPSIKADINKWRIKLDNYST
# Columns and labels:
# [1] = molecular target: T1, rhCD73 bound to his-tag magnet beads; assay: cell-based or functional assay
# [2] = molecular target: T2, human CD73 on cells (Calu6, NCI-H292, …); assay: cell-based or functional assay
# [3] = molecular target: T3, N-terminal domain of hCD73 (residues …); assay: SPR, mAb captured on protein A
# Method: For these experiments, protein A (Pierce) was immobilized to a density of 3000 — 4000 RU on flow cells 1-4 of a CM5 sensor chip (GE Healthcare) using standard ethyl(dimethylaminopropyl) carbodiimide (EDC)/N-hydroxysuccinimide (NHS) chemistry, with ethanolamine blocking, in a running buffer of 0.01 M HEPES pH 7.4, 0.15 M NaCl, 3 mM EDTA, 0.005% v/v tween 20. […] The running buffer for the kinetic experiments was 10 mM sodium phosphate, 130 mM sodium chloride, 0.05% tween 20, pH 7.1. The surfaces were regenerated after each cycle using two 30 s pulses of 10 mM glycine pH 1.5 at a flow rate of 30 μl/min. Sensogram data was double-referenced and then fitted to a 1:1 Langmuir model using Biacore T100 evaluation software v2.0.4, to determine the association rate constant (ka), the dissociation rate constant (kd), and the equilibrium dissociation constant (KD).
# [4] = molecular target: T2, human CD73 on cells (Calu6, NCI-H292, …); assay: binding titration on Calu6 cells, average of 2-6 experiments
# Method: Titration binding curves were produced with CD73 antibodies on Calu6 (CD73 endogenous expressors; human pulmonary adenocarcinoma cell line), DMS114 (CD73 negative; human small cell lung cancer cell line), CHO-cynoCD73 (cynoCD73-transfected) and CHO-K1 (cynoCD73 negative), cells using Alexa Fluor® 647 Goat Anti-Human IgG (H+L) as a secondary antibody, Invitrogen Cat#A-21445, using the following method: 100000 cells were plated in 100 uL PBS+2% FBS per well and blocked for 20 min. Using a U-bottom 96-deep well plate, volumes of antibody and PBS+2% FBS were combined as dictated by Table 12 below.
# An 8-point serial dilution was performed by diluting a sixth of the volume (90 uL) into 450 μL PBS+2% FBS. The cell plate was spun down for 5 minutes at 1500 rpm. 100 uL of diluted antibody was added per well of the plate. 100 uL PBS+2% FBS were added to all other wells. […] The plates were spun down at 1500 rpm for 5 min and washed in 200 uL PBS +2% FBS per well. The plates were washed again, resuspended in 200 uL 2% FBS in PBS per well and the samples were run.
# [5] = molecular target: T2, human CD73 on cells (Calu6, NCI-H292, …); assay: cell-based or functional assay; remark: listed apart in the source
# [6] = molecular target: T2, human CD73 on cells (Calu6, NCI-H292, …); assay: cell-based or functional assay; remark: listed apart in the source
# [7] = molecular target: T2, human CD73 on cells (Calu6, NCI-H292, …); assay: cell-based or functional assay; remark: listed apart in the source
Binder,"EC50 (nM), inhibition of bead-bound rhCD73 enzymatic activity [1] [nM]","EC50 (nM), CD73 internalization, Calu6, 2 h [2] [nM]","Ymax, CD73 internalization, Calu6, 2 h [2]",Kd [3],koff [3],kon [3],EC50 [4] [nM],EC50 Calu6 inhibition [5] [nM],EC50 H292 inhibition [5] [nM],EC50 SKMEL24 inhibition [5] [nM],"IC50 (nM), cAMP HTRF assay, Calu-6 with HEK293/A2AR cells [6] [nM]","Ymax, cAMP HTRF assay [6]","CD73 Inhibition EC50(nM), cAMP assay, Calu6 [7] [nM]","CD73 Inhibition S:B, cAMP assay, Calu6 [7]"
"4D4 (antibody, human IgG2, kappa, IgG2 from hybridoma; also called 4D4-1) heavy: QVQLVESGGGVVQPGRSLRLSCAASGFTFSNYGMHWVRQAPGKGLEWVAVIWYDESNKYYADSVKGRFTISRDNSKNTLFLQMNSLRAEDTAVYYCARGYNSRWYPDAFDIWGQGTMVTVSSASTKGPSVFPLAPCSRSTSESTAALGCLVKDYFPEPVTVSWNSGALTSGVHTFPAVLQSSGLYSLSSVVTVPSSNFGTQTYTCNVDHKPSNTKVDKTVERKCCVECPPCPAPPVAGPSVFLFPPKPKDTLMISRTPEVTCVVVDVSHEDPEVQFNWYVDGVEVHNAKTKPREEQFNSTFRVVSVLTVVHQDWLNGKEYKCKVSNKGLPAPIEKTISKTKGQPREPQVYTLPPSREEMTKNQVSLTCLVKGFYPSDIAVEWESNGQPENNYKTTPPMLDSDGSFFLYSKLTVDKSRWQQGNVFSCSVMHEALHNHYTQKSLSLSPGK light: not shown",5.31,0.38,104 % of 100 nM 11F11,9.4 nM and 6.2 nM,0.00077 s⁻¹ and 0.00049 s⁻¹,82000 M⁻¹ s⁻¹ and 79000 M⁻¹ s⁻¹,0.82,–,–,–,–,–,–,–
"10D2 (antibody, human IgG4, kappa, V domains shown, also called 10D2-2) VH: QVQLVESGGGVVQPGRSLRLSCAASGFTFSNYGLHWVRQAPGKGLEWVAVIRYDGSNKYYADSVKGRFTISRDNSKNTLYLQMSSLRAEDTAVYYCARGGSSWYPDGLDVWGQGTTVTVSS VL: DIQMTQSPSSLSASVGDRVTITCRASQGISSWLAWYQQKPEKAPKSLIYAASSLQSGVPSRFSGSGSGTDFTLTISSLQPEDFATYYCQQYNSYPLTFGGGTKVEIKR",6.94,–,29 % of 100 nM 11F11,1.6 nM,0.00095 s⁻¹,610000 M⁻¹ s⁻¹,–,–,–,–,–,–,–,–
"24H2 (antibody, human IgG4, kappa, V domains shown, also called 24H2-1) VH: QVQLVESGGGVVQPGRSLRLSCAASGFTFSNYGMHWVRQAPGKGLEWVAVIWYDGGNKYYADSVKGRFTISRDNSKNTLFLQMNSLRAEDTAVYYCARGGSSWYPDAFDIWGQGTMVTVSS VL: DIQMTQSPSSLSASVGDRVTITCRASQGISSWLAWYQQKPEKAPKSLIYAASSLQSGVPSRFSGSGSGTDFTLTISSLQPEDFATYYCQQYNSYPLTFGGGTKVEIKR",4.18,8.2,51 % of 100 nM 11F11,14 nM,0.0032 s⁻¹,230000 M⁻¹ s⁻¹,–,–,–,–,–,–,–,–
"7A11 (antibody, human IgG1, kappa, V domains shown, IgG1za from hybridoma; also called 7A11-1) VH: EVQLVESGGGLVQTGRSLRLSCAASGFTFDDYAMHWVRQAPGKGLEWVSDISWNSDIIGYADSVKGRFTISRDNAKNSLYLQMNSLRAEDTALYYCAKDIYGSGSSFFDYWGQGILVTVSS VL: DIQMTQSPSSLSASVGDRVTITCRASQYISSWLAWYQQKPEKAPKSLIYAASSLQSGVPSRFSGSGSGTDFTLTISSLQPEDFATYYCQQYHSYPPTFGQGTRLEIKR",2.86,2.59,50 % of 100 nM 11F11,0.43 nM,0.00038 s⁻¹,880000 M⁻¹ s⁻¹,0.35,0.95,1.31,3.72,0.95,45 % of 100 nM 11F11,–,–
"11A6 (antibody, human IgG1, kappa, V domains shown, IgG1za from hybridoma; also called 11A6-1) VH: EVQLVESGGNLVQPGRSLRLSCAASGFTFDDYAMHWVRQAPGKGLEWVSGISWNNNDIGYADSVKGRFIISRDNAKNSLYLQMNSLRPEDTALYYCVKGYYVILTGLDYWGQGTPVTVSS VL: DIQMTQSPSSLSASVGDRVTITCRASQGISSWLAWYQQKPEKAPKSLIYAASSLQSGVPSRFSGSGSGTDFTLTISSLQPEDFATYYCQQYNSYPLTFGGGTKVEIKR",3.12,–,–,140 nM,0.0076 s⁻¹,55000 M⁻¹ s⁻¹,1.93,2.21,–,–,4.87,84 % of 100 nM 11F11,–,–
"5F8 (antibody, human IgG1, kappa, V domains shown, IgG1za from hybridoma; predominant light chain VK1, VK2 also expressed; also called 5F8-1) VH: EVQLVESGGGLVQPGGSLRLSCAASGFTFSSYWMHWVRQAPGKGLVWVSRIISDGSSTGYADSVKGRFTISRDNAKNTLYLQMNSLRAEDTAVYYCAREFSSGWYFDYWGQGTLVTVSS VL: AIQLTQSPSSLSASVGDRVTITCRASQGISSALAWYQQKPGKAPKLLIYDASSLESGVPSRFSGSGSGTDFTLTISSLQPEDFATYYCQQFSSYPRTFGQGTKVEIKR",5.76,–,–,41 nM,0.006 s⁻¹,150000 M⁻¹ s⁻¹,11.7,8.1,13.5,110,13.2,80 % of 100 nM 11F11,–,–
"4C3 (antibody, human IgG1, kappa, V domains shown, IgG1za from hybridoma; also called 4C3-1) VH: EVQLVESGGGLVQPGRSLRLSCAASGFTFDDYAMHWVRQAPGKGLEWVSGISWKSGSIGYADSVKGRFTISRDNAKNSLYLQMNSLRAEDTALYYCVKGYYVILTGLDYWGQGTLVTVSS VL: not shown",–,–,–,–,–,–,–,–,–,–,–,80 % of 100 nM 11F11,–,–
CD73.4-IgG2.5-plusTHT (antibody) heavy: QVQLVESGGGVVQPGRSLRLSCAASGFTFSNYGMHWVRQAPGKGLEWVAVILYDGSNKYYPDSVKGRFTISRDNSKNTLYLQMNSLRAEDTAVYYCARGGSSWYPDSFDIWGQGTMVTVSSASTKGPSVFPLAPSSRSTSESTAALGCLVKDYFPEPVTVSWNSGALTSGVHTFPAVLQSSGLYSLSSVVTVPSSNFGTQTYTCNVDHKPSNTKVDKTVERKCCVETHTCPPCPAPPVAGPSVFLFPPKPKDTLMISRTPEVTCVVVDVSHEDPEVQFNWYVDGVEVHNAKTKPREEQFNSTFRVVSVLTVVHQDWLNGKEYKCKVSNKGLPAPIEKTISKTKGQPREPQVYTLPPSREEMTKNQVSLTCLVKGFYPSDIAVEWESNGQPENNYKTTPPMLDSDGSFFLYSKLTVDKSRWQQGNVFSCSVMHEALHNHYTQKSLSLSPGK light: not shown,–,–,–,–,–,–,–,–,–,–,–,–,0.9,44
